Measured values taken from article PMC5563082.

B1: human MDGA1 extracellular domain (MDGA1_(ECTO); Gln19-Lys925) (domain or fragment)
chain: QGVYAPAQAQIVHAGQACVVKEDNISERVYTIREGDTLMLQCLVTGHPRPQVRWTKTAGSASDKFQETSVFNETLRIERIARTQGGRYYCKAENGVGVPAIKSIRVDVQYLDEPMLTVHQTVSDVRGNFYQEKTVFLRCTVNSNPPARFIWKRGSDTLSHSQDNGVDIYEPLYTQGETKVLKLKNLRPQDYASYTCQVSVRNVCGIPDKAITFRLTNTTAPPALKLSVNETLVVNPGENVTVQCLLTGGDPLPQLQWSHGPGPLPLGALAQGGTLSIPSVQARDSGYYNCTATNNVGNPAKKTVNLLVRSMKNATFQITPDVIKESENIQLGQDLKLSCHVDAVPQEKVTYQWFKNGKPARMSKRLLVTRNDPELPAVTSSLELIDLHFSDYGTYLCMASFPGAPVPDLSVEVNISSETVPPTISVPKGRAVVTVREGSPAELQCEVRGKPRPPVLWSRVDKEAALLPSGLPLEETPDGKLRLERVSRDMSGTYRCQTARYNGFNVRPREAQVQLNVQFPPEVEPSSQDVRQALGRPVLLRCSLLRGSPQRIASAVWRFKGQLLPPPPVVPAAAEAPDHAELRLDAVTRDSSGSYECSVSNDVGSAACLFQVSAKAYSPEFYFDTPNPTRSHKLSKNYSYVLQWTQREPDAVDPVLNYRLSIRQLNQHNAVVKAIPVRRVEKGQLLEYILTDLRVPHSYEVRLTPYTTFGAGDMASRIIHYTEPINSPNLSDNTCHFEDEKICGYTQDLTDNFDWTRQNALTQNPKRSPNTGPPTDISGTPEGYYMFIETSRPRELGDRARLVSPLYNASAKFYCVSFFYHMYGKHIGSLNLLVRSRNKGALDTHAWSLSGNKGNVWQQAHVPISPSGPFQIIFEGVRGPGYLGDIAIDDVTLKKGECPRKQTDPNK
B2: human MDGA2 extracellular domain (MDGA2_(ECTO); Gln21-Lys927) (domain or fragment)
chain: QGVYAPPTVRIVHSGLACNIEEERYSERVYTIREGETLELTCLVTGHPRPQIRWTKTAGSASDRFQDSSVFNETLRITNIQRHQGGRYYCKAENGLGSPAIKSIRVDVYYLDDPVVTVHQSIGEAKEQFYYERTVFLRCVANSNPPVRYSWRRGQEVLLQGSDKGVEIYEPFFTQGETKILKLKNLRPQDYANYSCIASVRNVCNIPDKMVSFRLSNKTASPSIKLLVDDPIVVNPGEAITLVCVTTGGEPAPSLTWVRSFGTLPEKTVLNGGTLTIPAITSDDAGTYSCIANNNVGNPAKKSTNIIVRALKKGRFWITPDPYHKDDNIQIGREVKISCQVEAVPSEELTFSWFKNGRPLRSSERMVITQTDPDVSPGTTNLDIIDLKFTDFGTYTCVASLKGGGISDISIDVNISSSTVPPNLTVPQEKSPLVTREGDTIELQCQVTGKPKPIILWSRADKEVAMPDGSMQMESYDGTLRIVNVSREMSGMYRCQTSQYNGFNVKPREALVQLIVQYPPAVEPAFLEIRQGQDRSVTMSCRVLRAYPIRVLTYEWRLGNKLLRTGQFDSQEYTEYAVKSLSNENYGVYNCSIINEAGAGRCSFLVTGKAYAPEFYYDTYNPVWQNRHRVYSYSLQWTQMNPDAVDRIVAYRLGIRQAGQQRWWEQEIKINGNIQKGELITYNLTELIKPEAYEVRLTPLTKFGEGDSTIRVIKYSAPVNPHLREFHCGFEDGNICLFTQDDTDNFDWTKQSTATRNTKYTPNTGPNADRSGSKEGFYMYIETSRPRLEGEKARLLSPVFSIAPKNPYGPTNTAYCFSFFYHMYGQHIGVLNVYLRLKGQTTIENPLWSSSGNKGQRWNEAHVNIYPITSFQLIFEGIRGPGIEGDIAIDDVSIAEGECAKQDLATK

Legend:
[1] = biological target: human NL1(–A+B)_(ECTO), immobilised for SPR (human); experiment: SPR; biotinylated NL_(ECTO)-Avitag variants captured from dialysed conditioned medium on streptavidin CM5 chip (500 RU; 550 RU for the ΔSite series; 1000 RU for NL3 and NL3 Arg451Cys in the R451C series); β-NRX1_(LNS6)(±4), MDGA1_(ECTO), MDGA2_(ECTO) injected, 15 concentrations, two-fold series from 50 μM; TBS-CTB (10 mM Tris pH 7.4, 150 mM NaCl, 3 mM CaCl2, 0.005% Tween-20, 1.0 g/L BSA); equilibrium analysis, 1:1 Langmuir model
Chain of human NL1(–A+B)_(ECTO), immobilised for SPR (human) (Q8N2Q7 whole entry): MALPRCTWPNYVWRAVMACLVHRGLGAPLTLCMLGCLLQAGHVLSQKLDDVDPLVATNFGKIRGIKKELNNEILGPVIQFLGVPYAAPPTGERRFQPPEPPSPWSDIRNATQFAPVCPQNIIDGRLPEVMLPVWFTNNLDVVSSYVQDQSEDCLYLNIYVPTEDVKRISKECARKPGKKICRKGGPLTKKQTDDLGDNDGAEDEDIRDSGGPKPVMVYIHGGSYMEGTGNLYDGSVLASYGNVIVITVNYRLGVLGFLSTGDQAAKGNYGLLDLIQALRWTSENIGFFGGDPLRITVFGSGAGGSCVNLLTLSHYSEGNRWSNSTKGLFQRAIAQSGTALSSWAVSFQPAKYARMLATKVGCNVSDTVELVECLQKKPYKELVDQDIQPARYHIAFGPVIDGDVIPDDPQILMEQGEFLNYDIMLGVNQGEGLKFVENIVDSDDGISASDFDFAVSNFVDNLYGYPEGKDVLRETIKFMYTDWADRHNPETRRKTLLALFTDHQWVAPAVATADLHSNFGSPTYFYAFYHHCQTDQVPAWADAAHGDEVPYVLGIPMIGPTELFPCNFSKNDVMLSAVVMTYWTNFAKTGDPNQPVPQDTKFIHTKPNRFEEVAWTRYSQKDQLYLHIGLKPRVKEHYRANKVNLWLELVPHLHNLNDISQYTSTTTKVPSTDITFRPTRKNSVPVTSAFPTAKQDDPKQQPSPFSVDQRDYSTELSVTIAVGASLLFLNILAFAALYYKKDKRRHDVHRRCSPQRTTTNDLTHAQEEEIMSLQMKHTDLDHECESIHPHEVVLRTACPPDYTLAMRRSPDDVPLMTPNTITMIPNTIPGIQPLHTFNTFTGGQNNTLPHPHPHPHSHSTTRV

[2] = biological target: human NL1(–A–B)_(ECTO), biotinylated and immobilised for SPR (human); experiment: as above
Chain of human NL1(–A–B)_(ECTO), biotinylated and immobilised for SPR (human) (Q8N2Q7 whole entry): as above

Binder | fold weaker than with NL1(–A–B) (ECTO) [1] [fold] | Kd [2] [nM]
B1 | 7 | 2000
B2 | 7 | 1000
